# Measurements taken from US20200010534A1 (SAGABIO, published 2020).
# T1: HpHSP60 fragment including positions 101-200 (Helicobacter pylori, UniProt B2UW12 101-200)
# T1 construct: also called HSP 60 101-200
# T1 sequence: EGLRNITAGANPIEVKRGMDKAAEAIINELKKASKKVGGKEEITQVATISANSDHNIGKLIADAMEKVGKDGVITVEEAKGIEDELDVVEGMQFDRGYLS
# T2: HpHSP60 fragment Δ[1], positions 134-200 of HpHSP60 (Helicobacter pylori, UniProt B2UW12 134-200)
# T2 sequence: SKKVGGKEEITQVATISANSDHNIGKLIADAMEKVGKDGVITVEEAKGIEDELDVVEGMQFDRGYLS
# T3: HpHSP60 fragment Δ[5], positions 101-168 of HpHSP60 (Helicobacter pylori, UniProt B2UW12 101-168)
# T3 sequence: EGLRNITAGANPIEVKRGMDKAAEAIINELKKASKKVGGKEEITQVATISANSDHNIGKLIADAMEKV
# B1: LHP-1 (9E4) antibody (antibody, V domains shown)
# VH: EVHLVESGGDLVKPGGSLKLSCAASGFTFSSFGMSWVRQTPDKRLEWVATISNGGSYTYYPDSVKGRFTISRDNAKNTLYLQMSSLKSEDTAMYYCTRQGLRRRGAMDYWGQGTSVTVSS
# VL: DIVLTQSPASLAVSLGQRATISCKASQSVDYDGDVFLNWYQQKPGQPPKLLIYAASNLESGIPARFSGSGSGTDFTLNIHPVEEDDAATYYCQQSNEVPWTFGGGTKLEIK
# notes: Mouse monoclonal antibody from hybridoma 9E4 (ATCC PTA-122900); The variable regions are tied to the deposited hybridoma only in the claims; also called LHP-1 (9E4) mAb; monoclonal antibody produced by hybridoma ATCC PTA-122900
# Experiments:
# [1] = biological target: T1, HpHSP60 fragment including positions …; experiment: recognition of HpHSP60 fragments by the antibody (spot/blot, FIG. 15)
# [2] = biological target: T2, HpHSP60 fragment Δ[1], positions …; experiment: recognition of HpHSP60 fragments by the antibody (spot/blot, FIG. 16)
# [3] = biological target: T3, HpHSP60 fragment Δ[5], positions …; experiment: as above
binder,measurement,setting,value
B1,binding result,[1],binds
same,binding result,[2],binds
same,binding result,[3],no binding
